From the supplement of paper PMC12042874 come the findings set out here.

± gives the uncertainty stated by the source.

The data set can be described thus: amyloid nucleation score (Sup35N fusion, yeast selection) (log enrichment); library NNK1; higher = more nucleation; inactive = no reads after selection. In short, it runs like this: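 Peptides of 20 random codons fused to Sup35N were expressed in psi-negative yeast, induced 24 hours with 100 μM copper sulfate, then grown 7 days at 30°C on medium lacking adenine and uracil. Input and output plasmid inserts were Illumina-sequenced. Nucleation score is the DiMSum log enrichment of output over input reads, centred on the mode score of non-aggregating sequences, excluding sequences with under 100 input reads. Random libraries had three technical output replicates.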
The substance VFWGDKMSLLDLSVTNIMSI returned an amyloid nucleation score of 1.49 ± 0.4.

In turn, FVVAVGLIVFD displayed an amyloid nucleation score of 0.027 ± 1.7.

QCIPLLAGSYCAQML had an amyloid nucleation score of 0.914 ± 0.14.

As to YTAACTRSNCYMCPVSAVGW, the amyloid nucleation score came out at 0.214 ± 0.86.

The substance HWSSFPNVLYIM yielded an amyloid nucleation score of -0.106 ± 0.44.

With KNSIYSCVTRTFSPMVLRYC, the amyloid nucleation score was determined as 0.557 ± 0.54.

Substance EQVSKMGNTCMSVDRVRWQN displayed an amyloid nucleation score of -0.411 ± 0.87.

PSTDLWWLGNTLSIGNRIVY: the amyloid nucleation score is -0.879 ± 0.69.

NTTAWPVYFYLWFRKTGWPL showed an amyloid nucleation score of -0.371 ± 0.78.

Substance GNKPLVVHGSGGICKLCE gave an amyloid nucleation score of -0.147 ± 0.38.

NCYSF displayed an amyloid nucleation score of 0.055 ± 0.29.

Substance LNRSNWANFCMAEFMDPRS gave an amyloid nucleation score of 0.488 ± 0.58.

For the substance TFMAARQWLGPNYDGGQGLK, the amyloid nucleation score is -0.2 ± 1.

Take RHSFGLFVSRLVRFREDGYY: the amyloid nucleation score is -0.508 ± 0.52.

LNGPTVTKECRGAYMVMPGT displayed an amyloid nucleation score of -0.431 ± 1.1.

On to AVRDDMDY, for which the amyloid nucleation score was -0.059 ± 0.22.

Consider AKMIDR, for which the amyloid nucleation score came out at 0.399 ± 0.5.

In the case of SSCLEGCKSEACGWSNDGPG, the amyloid nucleation score was -0.048 ± 0.76.

For MMSEYSYESFHMLII, the amyloid nucleation score was -2.05 ± 1.4.

As for TSNLHTHGSVFDFWG, the amyloid nucleation score was determined as 0.732 ± 0.55.

Turning to RYSSVKLEMKSQVVIELTLI, the amyloid nucleation score came out at 1.09 ± 0.76.

TSKERSLCSKDVT registered an amyloid nucleation score of 0.393 ± 0.55.

Consider FVFHVGDDARGSCHKCRLWN, for which the amyloid nucleation score came to 0.665 ± 0.62.

With CVCMVRYGVRAHR, the amyloid nucleation score is 0.469 ± 0.64.

Substance SCGNVGQRVVNIQYVGNSRF displayed an amyloid nucleation score of 6.34 ± 0.077.

Turning to HYVVG, the amyloid nucleation score is -0.784 ± 0.74.

As for ILILNGLGGHVFARWYVACT, the amyloid nucleation score came to 0.002 ± 0.75.

SNPIRTNV showed an amyloid nucleation score of -0.533 ± 0.38.

IKIRAFDTSSCSQFRVRPRV displayed an amyloid nucleation score of 4.63 ± 0.095.

Take TQRFFIVRMPSVCNNYYHLA: the amyloid nucleation score was 4.52 ± 0.067.

CPDLGYACWYIINRIPSTWC registered an amyloid nucleation score of -1.3 ± 1.2.

The substance QFESIGCVEWYMFGIREVFS yielded an amyloid nucleation score of -0.318 ± 0.47.

As to VPYVISINSMVWVGHRPVLP, the amyloid nucleation score came to 6.132 ± 0.057.

Consider FIQNKVLVFQSNSTNDLLFP, for which the amyloid nucleation score was determined as 6.071 ± 0.058.

The substance GVLSICGML showed an amyloid nucleation score of -0.401 ± 0.31.

Turning to DTQESSNIVRSLPRLVGLLG, the amyloid nucleation score worked out at 0.248 ± 0.43.

For FRCGKGVVMSYELVNSIVGS, the amyloid nucleation score is 0.407 ± 0.76.

Turning to EKRFFVSLVNVYLDL, the amyloid nucleation score was 4.57 ± 0.071.

Regarding TNSFSVGCVRIP, the amyloid nucleation score amounted to 0.657 ± 0.68.

Turning to QSLSLVVPDIVMIKTPN, the amyloid nucleation score result is “inactive”.

LWGRGCMCWVVVARCFWPLR registered an amyloid nucleation score of -0.153 ± 1.4.

Substance LWLRGLVSFRQSHGRTGKSS gave an amyloid nucleation score of -0.126 ± 0.33.

WDHQNMNLYYIKYGMVMNQS yielded an amyloid nucleation score of 3.17 ± 0.067.

Substance CSLSSRNDLGCIMVLLYAWI came in with an amyloid nucleation score of 0.605 ± 0.33.

VPMPGNDQWDGKRGYICIRS displayed an amyloid nucleation score of 1.31 ± 0.48.

For the substance GFDIMYLILTPSCPATQSGM, the amyloid nucleation score entry is “inactive”.

With TVNARVGVSIFYYWV, the amyloid nucleation score was found to be 0.345 ± 0.93.

For the substance YCVTSMVRRLVKMLYDCRGV, the amyloid nucleation score entry was “inactive”.

For TICSSTFNFCSCFVTYLRMG, the amyloid nucleation score amounted to 4.83 ± 0.072.

Substance RKLLSISL returned an amyloid nucleation score of 0.22 ± 0.71.

In turn, TKIHLPYCYANLVNHSVQHK showed an amyloid nucleation score of 0.704 ± 0.61.

Turning to YDQGVPTDVLILIAIEHQLS, the amyloid nucleation score was 5.53 ± 0.077.

In turn, LNINSFFVFGT showed an amyloid nucleation score of 4.97 ± 0.057.

On to GQFAFNMKNSLMNVVGVILE, for which the amyloid nucleation score result is “inactive”.

NSFRWDLTLLLWARINVDSF displayed an amyloid nucleation score of 1.49 ± 0.7.

As to SYSFWPMQLTCYFFDVGRCL, the amyloid nucleation score is 7.434 ± 0.073.

On to CISGD, for which the amyloid nucleation score was found to be 0.429 ± 0.37.

PVFGGNGWLGYGWNWRSHLG returned an amyloid nucleation score of 0.383 ± 0.49.

Take RVDTLYKVHLSKIRPSGGST: the amyloid nucleation score was -0.096 ± 0.75.

The substance AMFNIW displayed an amyloid nucleation score of -0.328 ± 0.47.

NSSVGVESHIFSIVDKMNTW: the amyloid nucleation score result is “inactive”.

Substance CLNSDALDHW had an amyloid nucleation score of 1.17 ± 0.42.

As to YNGGLRVMICLPECLLFSLI, the amyloid nucleation score is -0.246 ± 0.49.

Substance DFWSYDDVVFGRC returned an amyloid nucleation score of 1.3 ± 0.6.

ESHRRR: the amyloid nucleation score is 0.569 ± 0.62.

In the case of CFFRTDGLDTPYGAYLVRSF, the amyloid nucleation score was 2.31 ± 0.2.

As for STDVEGRFTEMLSELMLYVD, the amyloid nucleation score result was “inactive”.

TVLDFCFWYAGVVFKYARFV came in with an amyloid nucleation score of -0.932 ± 0.39.

YGGLEVSLGALQNVGVKPYT came in with an amyloid nucleation score of -0.189 ± 1.1.

For TVMANKY, the amyloid nucleation score is -0.16 ± 0.32.

In turn, VCMTTLCWISSGVGFLHWSS showed an amyloid nucleation score of 3.98 ± 0.068.

In turn, LSEYVKEAVVDPRLTFARIA registered an amyloid nucleation score of -0.764 ± 0.89.

Take CHSHDVCRGMLT: the amyloid nucleation score was -0.135 ± 0.38.

On to VSPSIRMGNQGSSFSVLNAL, for which the amyloid nucleation score stood at 0.149 ± 0.55.

In the case of VFCVSRTINGYN, the amyloid nucleation score was -0.374 ± 0.48.

The substance VAMILYGFTFWILRCNEWCR came in with an amyloid nucleation score of 0.377 ± 0.24.

Regarding GFMVDERSTIVEDLPRSADV, the amyloid nucleation score was -0.913 ± 0.34.

In turn, CYRIDGSYYQLSCSYVYVRV gave an amyloid nucleation score of -0.837 ± 1.1.

In turn, NKTMGMKSYFLGNIFYMYGW displayed an amyloid nucleation score of 5.215 ± 0.046.

For the substance YNIVMMDS, the amyloid nucleation score came out at 0.108 ± 0.36.

Substance LSYDSYSYIGLGGSLEIFWA yielded an amyloid nucleation score of 0.182 ± 0.71.

Consider KVYTWVPPTMNYRMNLFIVR, for which the amyloid nucleation score worked out at 0.036 ± 0.19.

Take DASLQWYVDSLKFCWV: the amyloid nucleation score stood at 0.18 ± 0.36.

WHRDVGFTLISVTPFCMMGG registered an amyloid nucleation score of 1.54 ± 0.33.

Substance CPVCNTESTCRYPRVGKWDT had an amyloid nucleation score of 3.01 ± 0.17.

FILSEFSNRF had an amyloid nucleation score of 0.104 ± 0.34.

With AMWLFACGLWLLLPRYIGRC, the amyloid nucleation score was -0.485 ± 1.2.

ARRASVEFSYSTLERGMWRC: the amyloid nucleation score stood at 1.9 ± 0.18.

In the case of FIIITYFGLGKTVYARRKCC, the amyloid nucleation score is -1.92 ± 2.7.

Regarding LVLIAA, the amyloid nucleation score result was “inactive”.

GHDLSVPWRTDWLRGL: the amyloid nucleation score was 0.177 ± 1.2.

YKANCVETLSWSFGHNFFLR returned an amyloid nucleation score of -0.481 ± 0.49.

As to YIMFDVLLTDKRPSSSVCSC, the amyloid nucleation score stood at 3.41 ± 0.069.

As to NKNSGSRHHHVTYQLTPGER, the amyloid nucleation score result was “inactive”.

TSTLVMTNKMVLDSVE displayed an amyloid nucleation score of -0.543 ± 0.25.

With GCFMLSSGLGISEPGSFWWG, the amyloid nucleation score was found to be 0.224 ± 0.53.

Turning to IWCNMSFNIRV, the amyloid nucleation score came out at 4.4 ± 0.088.

Take LLIGWASEDHRYKGISNGGG: the amyloid nucleation score was 0.598 ± 0.34.

TMVCFVLDNCICKSLVTTCL: the amyloid nucleation score entry is “inactive”.

Regarding KRHVSGKVQMGWGVRRRPV, the amyloid nucleation score amounted to 0.178 ± 0.72.

DASLVGLQLSHHSILFHCSM: the amyloid nucleation score came to 0.021 ± 1.2.

CQSLPKFLHANVKYNSVSGA: the amyloid nucleation score is -0.16 ± 0.24.

In the case of CYAFLDWAYVSEG, the amyloid nucleation score stood at 0.114 ± 0.28.

In the case of PTTFVENIAWRRGSTSCLCG, the amyloid nucleation score result is “inactive”.

RAQYYYICRWRYYTWPVPR came in with an amyloid nucleation score of -0.515 ± 1.

For the substance SGMCTYL, the amyloid nucleation score worked out at 0.513 ± 0.33.

In turn, CFFASVHPLCYRGVSGVGVF showed an amyloid nucleation score of -1.28 ± 2.1.

For FQDLSLAVSQCLPCVIIGDC, the amyloid nucleation score is -0.131 ± 0.44.

EFLRNGLIILIVSLSAGELS had an amyloid nucleation score of 0.137 ± 0.23.

In the case of SLVSYSVHANFCVFIWTNGS, the amyloid nucleation score amounted to 1.25 ± 0.44.

As for IPSGTVF, the amyloid nucleation score came out at 0.34 ± 0.9.

For FNYFVLFSLSFSTVFSFNDT, the amyloid nucleation score turned out to be 3.37 ± 0.081.

For the substance KSKIQDLCCPSRPVVGMVCL, the amyloid nucleation score came out at 0.239 ± 0.43.

With CTFTY, the amyloid nucleation score worked out at 0.053 ± 1.1.

As for NEFKFKVRTKEFRFEVCLKY, the amyloid nucleation score entry was “inactive”.

As for YMCHKRAFV, the amyloid nucleation score came out at 3.32 ± 0.12.

The substance YKVNNFKTFSLWNMFLDSNC had an amyloid nucleation score of 4.47 ± 0.064.

Consider GVDHIGLGTEEYNQSYLGSG, for which the amyloid nucleation score was -0.505 ± 0.53.

The substance CARSVCKSQYSSMSMPYLIV gave an amyloid nucleation score of 0.782 ± 0.39.

On to DTGLRLD, for which the amyloid nucleation score worked out at 0.536 ± 0.54.

TTSWDYFGAKEIIRFVMVTC: the amyloid nucleation score was -2.12 ± 2.7.

As for LPRRKLNFIGLKISISIIAV, the amyloid nucleation score entry was “inactive”.

As to GEFESSNVRSACSGGYFRAA, the amyloid nucleation score is -0.186 ± 0.88.

The substance VFYDNSARSVCNPNYGWTFS registered an amyloid nucleation score of 0.181 ± 0.48.

The substance RVSRFELAIVSVEGSYWVPE showed an amyloid nucleation score of 0.607 ± 0.36.

Take VAFWFVLGWKGSLYYKGLAD: the amyloid nucleation score stood at 0.334 ± 1.1.

The substance RKSVFNTLLFVE came in with an amyloid nucleation score of 0.569 ± 0.33.

In turn, KVVKCS yielded an amyloid nucleation score of -0.97 ± 0.3.

The substance EGSIMRGWLFICYNLF yielded an amyloid nucleation score of -0.244 ± 0.93.

Turning to YWRVVGITIWVVQDLIFGEG, the amyloid nucleation score was -0.783 ± 1.

RLYRWPIWWWVSLSEMGISQ: the amyloid nucleation score is -0.205 ± 0.35.

For DSKLLSPDFRGRLIYRIFDD, the amyloid nucleation score was -0.101 ± 0.46.

SQLESFWVYMQLRGMTYTVA gave an amyloid nucleation score of -0.081 ± 0.31.

On to YIQLVI, for which the amyloid nucleation score is -0.279 ± 0.32.

TRCCGFKRGGFVSYWMGSRP showed an amyloid nucleation score of 1.01 ± 0.51.

On to FKTRSRNRLVCCYEESRTDL, for which the amyloid nucleation score is 0.536 ± 0.34.

Regarding CRTHDKCKDSGHSRLNGYSG, the amyloid nucleation score is -0.299 ± 0.51.

For ILRNGRTYGAEVLQQLWNVL, the amyloid nucleation score was -0.418 ± 0.73.

FQSSNSSYITIHYCLVGRFT: the amyloid nucleation score was 6.013 ± 0.048.
